Assay results reported in patent publication US20110123532A1 (ONCOMED PHARMACEUTICALS, published 2011).
Numbering of substitutions follows the chain as printed.

Assays:
[1] = target: the molecule itself; assay: non-reducing western blot of conditioned medium of transfected HEK293 cells, anti-FLAG (left, middle) and anti-Fc (right); homodimer of the minibody
Excerpt: Var1 contains amino acid 249 Lys to Glu substitution and amino acid 288 Lys to Glu substitution within the CH3 domain. Antibody Var2 contains substitutions of amino acid 249 Lys to Glu substitution, amino acid 286 Tyr to Phe, and amino acid 288 Lys to Glu within the CH3 domain. Antibody Var3 (also referred to as 13A) contains substitutions of amino acid 236 Glu to Lys and amino acid 278 Asp to Lys. HEK293 cells were transiently transfected with combinations of expression vectors as indicated. Non-reducing Western blot analysis was conducted with an anti-FLAG antibody to reveal the size of the secreted antibody products.
Amino acid substitutions were introduced into either a truncated heavy chain (termed mini-body) containing the linker and CH2-CH3 region of a heavy chain, or a full length antibody heavy chain heavy chain.

[2] = target: T1, human VEGF (human, UniProt P15692-4 27-191); assay: SPR (Biacore), VEGF surface
T1 construct: Immobilised on a CM5 chip for Biacore; the same name is used for the rhVEGF of the HUVEC assay; also called hVEGF; rhVEGF

[3] = target: T1, human VEGF; assay: SPR (Biacore 2000), recombinant VEGF immobilised on CM5, IgG injected
Experimental: (§1) IgG affinities were determined using a Biacore 2000 instrument. Briefly, recombinant proteins were immobilized on a CM5 chip using standard amine based chemistry (NHS/EDC). For each Fab and IgG, different concentrations (100-1 nM) were injected over the surface and kinetic data were collected over time. The data was fit using the simultaneous global fit equation to yield affinity constants (KD) for each Fab and IgG.

[4] = target: T2, mouse VEGF (mouse, UniProt Q00731-2 27-190, limits assumed); assay: as above
T2 construct: also called mVEGF
T2 sequence (looked up): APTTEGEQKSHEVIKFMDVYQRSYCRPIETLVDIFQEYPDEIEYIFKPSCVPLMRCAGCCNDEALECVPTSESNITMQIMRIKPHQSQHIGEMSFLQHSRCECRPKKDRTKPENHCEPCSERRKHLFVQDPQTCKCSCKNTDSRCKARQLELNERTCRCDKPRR
Experimental: as §1

[5] = target: T3, full length human DLL4 on transfected human 293 HEK cells (human, UniProt Q9NR61 27-685); assay: flow cytometry on human 293 HEK cells transfected with full length human DLL4 and GFP; goat anti-human IgG H/L-PE; MFI against log(nM), non-linear fit
T3 construct: whole, on cells; also called hDLL4 transfected cells; human DLL4 transfected cells

[6] = target: T1, human VEGF; assay: Biacore dual targeting assay, high density VEGF surface, antibody first, then DLL4-Fc
Target sequence in this assay (P15692 other isoform, or with tags, fused parts or gaps limits assumed): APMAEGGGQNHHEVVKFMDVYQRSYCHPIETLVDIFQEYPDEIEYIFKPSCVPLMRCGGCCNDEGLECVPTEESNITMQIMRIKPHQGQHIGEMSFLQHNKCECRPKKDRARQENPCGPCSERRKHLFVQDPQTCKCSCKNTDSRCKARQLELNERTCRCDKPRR

[7] = target: T3, full length human DLL4 on transfected …; assay: flow cytometry on human 293 HEK cells transfected with full length human DLL4 and GFP; goat anti-human IgG H/L-PE
[8] = target: T1, human VEGF; assay: SPR (Biacore), VEGF surface; reference 219R0202 IgG
[9] = target: T3, full length human DLL4 on transfected …; assay: flow cytometry on HEK 293 cells transfected with human DLL4; reference 21M18
Experimental: Briefly, Human 293 HEK cells were transfected using Fugene 6 transfection reagent as recommended by the manufacturer (Roche Inc.). Cells were transfected with cDNA expression vector encoding full length human DLL4, as well as a second vector encoding green fluorescent protein, pcDNA-GFP, to mark the transiently transfected cells. […] Cells were then rinsed twice with Staining Medium (HBSS with 2% FCS) and incubated with fluorescent secondary antibody, goat-anti-human IgG H/L-phycoerythrin (PE), at 1:200 dilution in PBS for 1 hour. Cells were then analyzed by flow cytometry using a FACS Caliber instrument (BD Bioscience). Specific SBGSP binding was assessed by determining the presence of cells positive for GFP signal and PE signal.

B1: FLAG tagged minibody with wild type human IgG2 CH2 and CH3 domains (WT) (other)
chain: DYKDDDDKCVECPPCPAPPVAGPSVFLFPPKPKDTLMISRTPEVTCVVVDVSHEDPEVQFNWYVDGVEVHNAKTKPREEQFNSTFRVVSVLTVVHQDWLNGKEYKCKVSNKGLPAPIEKTISKTKGQPREPQVYTLPPSREEMTKNQVSLTCLVKGFYPSDIAVEWESNGQPENNYKTTPPMLDSDGSFFLYSKLTVDKSRWQQGNVFSCSVMHEALHNHYTQKSLSLSPGK
notes: also called WT minibody
[1]
  binding result: binds

B2: FLAG tagged minibody variant Var1 (13B) (other)
chain: B1 chain with K155E, K194E
[1]
  binding result: binds

B3: 219R0302 IgG (anti-VEGF antibody reformatted to IgG2) (antibody, V domains shown)
VH: QVQLKQSGAELVKPGASVKLSCKASGYTFTNYWMHWVKLRPGQGFEWIGDINPSNGGTSYNEKFKRKATLTVDKSSSTAYMQLSSLTSEDSAVYYCTIHYYDNSYAMDYWGQGTSVTVSS
VL: DIQMTQSPSSLSASVGDRVTITCQASQDISNYVNWYQQKPGKAPKLLIYDASNLQTGVPSRFSGRGSGTHFTFTISSLQPEDLATYYCQQYDDLPPTFGRGTKLEIKR
notes: Mouse VH from immunised mice paired with a human kappa light chain from a phagemid library; also called 21R0302
[2]
  Kd: 2.1 nM
[3]
  Kd: 2.1 nM
[4]
  Kd: 21 nM

B4: 219R0202 IgG (anti-VEGF antibody reformatted to IgG2) (antibody, V domains shown)
VH: B3 VH
VL: DIQLTQSPSSLSASVGDRVTITCRASQGINNHLAWYQQKPGKVPKSLIYAASNLHSGVPSKFSGSGSGTHFTLIISSLQPEDIATYYCQQYDNLPLTFGGGTKVEIKR
notes: Light chain variant of 219R0302 with the same heavy chain
[2]
  Kd: 1.5 nM
[3]
  Kd: 1.5 nM
[4]
  Kd: 23 nM

B5: 21M18 (antibody, V domains shown)
VH: QVQLVQSGAEVKKPGASVKISCKASGYSFTAYYIHWVKQAPGQGLEWIGYISSYNGATNYNQKFKGRVTFTTDTSTSTAYMELRSLRSDDTAVYYCARDYDYDVGMDYWGQGTLVTVSS
VL: DIVMTQSPDSLAVSLGERATISCRASESVDNYGISFMKWFQQKPGQPPKLLIYAASNQGSGVPDRFSGSGSGTDFTLTISSLQAEDVAVYYCQQSKEVPWTFGGGTKVEIKR
notes: also called 21M18 antibody; anti-human DLL4 (21M18)
[5]
  EC50: 2 nM

B6: Homo 13B (21M18) (antibody, human IgG2, kappa, V domains shown)
VH: B5 VH
VL: B5 VL
notes: also called 21M18 HC (with 13B mutation) expressed only with 21M18 LC
[5]
  EC50: 7.7 nM

B7: Homo 13A (219R02) (antibody, human IgG2, kappa, V domains shown)
VH: B3 VH
VL: B5 VL
notes: also called 219R02 13A Homo; 219R0202 HC (with 13A mutation) expressed only with 21M18 LC
[6]
  binding result: binds
[7]
  binding result: no binding (tested: log(nM) about 1.8 (about 60 nM))

B8: 219R0202-21M18 single gene bispecific antibody (SGBSP) (bispecific antibody, human IgG2, kappa)
chain 1: DIQLTQSPSSLSASVGDRVTITCRASQGINNHLAWYQQKPGKVPKSLIYAASNLHSGVPSKFSGSGSGTHFTLIISSLQPEDIATYYCQQYDNLPLTFGGGTKVEIKRTVAAPSVFIFPPSDEQLKSGTASVVCLLNNFYPREAKVQWKVDNALQSGNSQESVTEQDSKDSTYSLSSTLTLSKADYEKHKVYACEVTHQGLSSPVTKSFNRGECGGGGGSGGGGSGGGGSGGGGSGGGGSGGGGSQVQLKQSGAELVKPGASVKLSCKASGYTFTNYWMHWVKLRPGQGFEWIGDINPSNGGTSYNEKFKRKATLTVDKSSSTAYMQLSSLTSEDSAVYYCTIHYYDNSYAMDYWGQGTSVTVSSASTKGPSVFPLAPCSRSTSESTAALGCLVKDYFPEPVTVSWNSGALTSGVHTFPAVLQSSGLYSLSSVVTVPSSNFGTQTYTCNVDHKPSNTKVDKTVERKCCVECPPCPAPPVAGPSVFLFPPKPKDTLMISRTPEVTCVVVDVSHEDPEVQFNWYVDGVEVHNAKTKPREEQFNSTFRVVSVLTVVHQDWLNGKEYKCKVSNKGLPAPIEKTISKTKGQPREPQVYTLPPSREKMTKNQVSLTCLVKGFYPSDIAVEWESNGQPENNYKTTPPMLKSDGSFFLYSKLTVDKSRWQQGNVFSCSVMHEALHNHYTQKSLSLSPGK
chain 2: DIVMTQSPDSLAVSLGERATISCRASESVDNYGISFMKWFQQKPGQPPKLLIYAASNQGSGVPDRFSGSGSGTDFTLTISSLQAEDVAVYYCQQSKEVPWTFGGGTKVEIKRTVAAPSVFIFPPSDEQLKSGTASVVCLLNNFYPREAKVQWKVDNALQSGNSQESVTEQDSKDSTYSLSSTLTLSKADYEKHKVYACEVTHQGLSSPVTKSFNRGECGGGGSGGGGSGGGGSGGGGSGGGGSGGGGSQVQLVQSGAEVKKPGASVKISCKASGYSFTAYYIHWVKQAPGQGLEWIGYISSYNGATNYNQKFKGRVTFTTDTSTSTAYMELRSLRSDDTAVYYCARDYDYDVGMDYWGQGTLVTVSSASTKGPSVFPLAPCSRSTSESTAALGCLVKDYFPEPVTVSWNSGALTSGVHTFPAVLQSSGLYSLSSVVTVPSSNFGTQTYTCNVDHKPSNTKVDKTVERKCCVECPPCPAPPVAGPSVFLFPPKPKDTLMISRTPEVTCVVVDVSHEDPEVQFNWYVDGVEVHNAKTKPREEQFNSTFRVVSVLTVVHQDWLNGKEYKCKVSNKGLPAPIEKTISKTKGQPREPQVYTLPPSREEMTKNQVSLTCLVEGFYPSDIAVEWESNGQPENNYKTTPPMLDSDGSFFLYSELTVDKSRWQQGNVFSCSVMHEALHNHYTQKSLSLSPGK
notes: Heterodimer of two single-gene chains, anti-VEGF arm (13A) and anti-DLL4 arm (13B), IgG2; also called 219R0202_21M18 SGBSP; 219R0202-21M18 SGBSP
[2]
  Kd: 6.9 nM
[8]
  fold weaker binding affinity than 219R0202: ~5 fold
[9]
  fold loss in DLL4 binding activity compared to 21M18: ~5 fold
[5]
  EC50: 10.2 nM

B9: 219R0202-21M18 monovalent bispecific antibody (MBSP) with common 21M18 light chain (bispecific antibody, human IgG2, kappa)
heavy 1: QVQLKQSGAELVKPGASVKLSCKASGYTFTNYWMHWVKLRPGQGFEWIGDINPSNGGTSYNEKFKRKATLTVDKSSSTAYMQLSSLTSEDSAVYYCTIHYYDNSYAMDYWGQGTSVTVSSASTKGPSVFPLAPCSRSTSESTAALGCLVKDYFPEPVTVSWNSGALTSGVHTFPAVLQSSGLYSLSSVVTVPSSNFGTQTYTCNVDHKPSNTKVDKTVERKCCVECPPCPAPPVAGPSVFLFPPKPKDTLMISRTPEVTCVVVDVSHEDPEVQFNWYVDGVEVHNAKTKPREEQFNSTFRVVSVLTVVHQDWLNGKEYKCKVSNKGLPAPIEKTISKTKGQPREPQVYTLPPSREKMTKNQVSLTCLVKGFYPSDIAVEWESNGQPENNYKTTPPMLKSDGSFFLYSKLTVDKSRWQQGNVFSCSVMHEALHNHYTQKSLSLSPGK
heavy 2: QVQLVQSGAEVKKPGASVKISCKASGYSFTAYYIHWVKQAPGQGLEWIGYISSYNGATNYNQKFKGRVTFTTDTSTSTAYMELRSLRSDDTAVYYCARDYDYDVGMDYWGQGTLVTVSSASTKGPSVFPLAPCSRSTSESTAALGCLVKDYFPEPVTVSWNSGALTSGVHTFPAVLQSSGLYSLSSVVTVPSSNFGTQTYTCNVDHKPSNTKVDKTVERKCCVECPPCPAPPVAGPSVFLFPPKPKDTLMISRTPEVTCVVVDVSHEDPEVQFNWYVDGVEVHNAKTKPREEQFNSTFRVVSVLTVVHQDWLNGKEYKCKVSNKGLPAPIEKTISKTKGQPREPQVYTLPPSREEMTKNQVSLTCLVEGFYPSDIAVEWESNGQPENNYKTTPPMLDSDGSFFLYSELTVDKSRWQQGNVFSCSVMHEALHNHYTQKSLSLSPGK
light: DIVMTQSPDSLAVSLGERATISCRASESVDNYGISFMKWFQQKPGQPPKLLIYAASNQGSGVPDRFSGSGSGTDFTLTISSLQAEDVAVYYCQQSKEVPWTFGGGTKVEIKRTVAAPSVFIFPPSDEQLKSGTASVVCLLNNFYPREAKVQWKVDNALQSGNSQESVTEQDSKDSTYSLSSTLTLSKADYEKHKVYACEVTHQGLSSPVTKSFNRGEC
notes: also called 219R0202_21M18 MBSP
[2]
  Kd: 21 nM
[8]
  fold weaker binding affinity than 219R0202: ~14 fold
[9]
  fold loss in DLL4 binding activity compared to 21M18: ~3 fold
[5]
  EC50: 6.2 nM
